According to patent US20250295809A1 (published 2025):

Columns and labels:
HER2 on SK-BR-3 cells = HER2 on SK-BR-3 cells (human, UniProt P04626 23-1255); assay: cell-based or functional assay
HER2 ECD [1] = target: T1, HER2 ECD (human, UniProt P04626 23-652); assay: SPR (Biacore 8K); antibody captured on anti-human IgG Fc CM5 chip; HER2 ECD 0.625-80 nM as analyte; 1:1 global fit; 25 C
T1 construct: extracellular domain; also called ErbB2; HER2/neu

HER2 ECD [2] = target: T2, HER2 ECD (human, UniProt P04626 23-652); assay: SPR Biacore, binding to Her2 ECD, 1:1 binding model (global fit); HER-10 from concentrated SK-BR-3 culture medium
T2 construct: extracellular domain
Procedure: (§1) Antibody binding to HER2 was analyzed by Biacore 8K (GE Healthcare) surface plasmon resonance instrument (SPR). All reagents used were from GE Healthcare. HBS-EP+ was used as the sample and running buffer and the interaction was measured at 25° C. […] HER2 ECD (0.625-80 nM, 2-fold dilution) was passed over the captured anti-HER2 antibody at 30 μl/min flow rate, and association and dissociation phases were recorded for 300 and 600 sec, respectively. The sensor chip was regenerated by a 30 sec injection of 3M MgCl₂ at 30 μl/min at the end of each injection cycle. […] The conditioned media was diluted in HBS-EP+ to achieve a capture level that produced a final HER2 binding response of less than 200 RU.
(§2) SK-BR-3 cells were reverse transfected with plasmid DNA using Lipofectamine LTX and PLUS Reagent in fibronectin-coated flasks. The culture supernatant was replaced with serum-free medium (Opti-MEM) one day post-transfection. Three days post-transfection, the culture medium was concentrated using centrifugal concentrators (MilliporeSigma) and analyzed by Biacore SPR binding to Her2 ECD with data fitted to a 1:1 binding model (global fit).

HER2 ECD [3] = target: T2, HER2 ECD; assay: SPR Biacore, binding to Her2 ECD, 1:1 binding model (global fit); HER-10 expressed from Expi293 cells
Procedure: as §1, §2

B1: Ab-HER-78 (bispecific antibody, human IgG1, kappa)
heavy: QVQLVQSGAEVKKPGASVKVSCKASGYSFTGYFINWVREAPGQGLEWMGHISSSYATSTYNQKFQGRVTFTVDTSSSTAYMELSSLRSEDTAVYYCVRSGNYEEYAMDYWGQGTLVTVSSASTKGPSVFPLAPSSKSTSGGTAALGCLVKDYFPEPVTVSWNSGALTSGVHTFPAVLQSSGLYSLSSVVTVPSSSLGTQTYICNVNHKPSNTKVDKRVEPKSCDKTHTCPPCPAPELVGGPSVFLLPPKPKDTLMISRTPEVTCVVVDVSHEDPEVKFNWYVDGVEVHNAKTKPPEEQYNSTLRVVSVLTVLHQDWLNGKEYKCKVSNKALPAPIEKTISKAKGQPREPQVYTLPPSRDELTKNQVSLTCLVKGFYPSDIAVEWESNGQPENNYKTTPLVLDSDGSFFLYSKLTVDKSRWQQGNVFSCSVMHEALHNHYTQKSLSLSPGK
light: not shown
**Q.** Which “Emax (SK-BR-3 cell proliferation, CellTiter-Glo 2.0, five days)” value (HER2 on SK-BR-3 cells) does the source give for B1 here?
**A.** 56.5%

**Q.** What about the “IC50 (SK-BR-3 cell proliferation, CellTiter-Glo 2.0, five days)” value (HER2 on SK-BR-3 cells) of the same binder?
**A.** 0.08 µg/mL

B2: HER-10 recombinant (naked) antibody (antibody, human IgG1, kappa, V domains shown)
VH: QVQLQQSGPELVKPGASLKLSCTASGFNIKDTYIHWVKQRPEQGLEWIGRIYPTNGYTRYDPKFQDKATITADTSSNTAYLQVSRLTSEDTAVYYCSRWGGDGFYAMDYWGQGASVTVSS
VL: DIVMTQSHKFMSTSVGDRVSITCKASQDVNTAVAWYQQKPGHSPKLLIYSASFRYTGVPDRFTGSRSGTDFTFTISSVQAEDLAVYYCQQHYTTPPTFGGGTKVEIKR
notes: also called Ab-HER-10
**Q.** Which results are given for B2?
**A.** Kd (HER2 ECD [1]): 1.2 nM; koff (HER2 ECD [1]): 0.00021 s⁻¹; kon (HER2 ECD [1]): 190000 M⁻¹ s⁻¹

B3: HER-10 vectorized anti-HER2 antibody (antibody, human IgG1, kappa, V domains shown)
VH: B2 VH
VL: B2 VL
notes: also called Ab-HER-10
**Q.** Which Kd (HER2 ECD [1]) does the source give for B3 here?
**A.** 1.5 nM

**Q.** And the koff (HER2 ECD [1])?
**A.** 0.00025 s⁻¹

**Q.** And the kon (HER2 ECD [1])?
**A.** 170000 M⁻¹ s⁻¹

B4: HER-10 anti-HER2 antibody (Ab-HER-10) (antibody, human IgG1, kappa, V domains shown)
VH: B2 VH
VL: B2 VL
**Q.** With B4 as the binder, how does the Kd (HER2 ECD [2]) read?
**A.** 0.96 nM

**Q.** What about the Kd (HER2 ECD [3]) of the same binder?
**A.** 1.58 nM
